This experiment concerns the target Rabbit skeletal actin, filamentous (pre-formed actin filament) (rabbit) (UniProt P68135). The experiment in a line: single-filament TIRF microscopy with microfluidics (kymographs); actin filaments tethered at one point through biotinylated spectrin-actin seeds on streptavidin/PLL-PEG-biotin coverslip, stained with 0.15 uM Alexa Fluor 488-phalloidin; AF647-Tpm1.1 flowed in at various concentrations (62.5, 250, 500 nM shown), then washed with buffer only for dissociation; buffer F (5 mM Tris pH 7.8, 100 mM KCl, 1 mM MgCl2, 0.2 mM ATP, 0.2 mM EGTA, 0.1 mM CaCl2, 10 mM DTT, 1 mg/mL BSA).

The values below come from paper PMC6287813.

With “Murine tropomyosin isoform Tpm1.1, labelled with Alexa Fluor 647 at Cys-190 (natural protein)”, the elongation rate of the Tpm1.1 strand on actin per feed concentration, towards the barbed end (nm s^-1 nM^-1) came to 0.88; the elongation rate of the Tpm1.1 strand on actin per feed concentration, towards the pointed end (nm s^-1 nM^-1) came to 1.1; the nucleation time tnuc (Kaplan-Meier estimate, filament of Fig 3C, 62.5 nM Tpm1.1) was 1370 s; the weighted average elongation rate on one filament, towards the barbed end was 136 nm/s. Moreover, the weighted average elongation rate on one filament, towards the pointed end worked out at 104 nm/s.
